Experimental findings from patent EP2090664A1 (Universität Konstanz, dated 2009) are described below.

No end group written: not given here. *: point of attachment. Biotin = O=C1N[C@H]2[C@H](CS[C@H]2CCCCC(=O)*)N1

The chains are these.
B1: human cystatin C (HCC) (other)
chain: SSPGKPPRLVGGPMDASVEEEGVRRALDFAVGEYNKASNDMYHSRALQVVRARKQIVAGVNYFLDVELGRTTCTKTQPNLDNCPFHDQPHLKRKAFCSFQIYAVPWQGTMTLSKSTCQDA
notes: also called intact HCC; complete HCC
B2: HCC (101-117)-peptide (peptide)
peptide: IYAVPWQGTMTLSKSTC
notes: Synthetic peptide; also called C-terminal HCC peptide
B3: HCC (93-120)-peptide (peptide)
peptide: RKAFCSFQIYAVPWQGTMTLSKSTCQDA
notes: Synthetic peptide; also called synthetic HCC (93-120)-peptide
B4: N-terminal peptide Aβ (1-16) (peptide)
peptide: Biotin-GGGGGDAEFRHDSGYEVHHQK
notes: Biotinylated synthetic peptide of the ELISA series

One assay deals with T1, β-amyloid (Aβ) Aβ (1-40).
T1 construct: also called Aβ-peptide
The assay can be described thus: affinity-MS, Aβ (1-40) on the HCC micro-column.

Assay [1] addresses T2, N-Cysteinyl-Aβ (1-40) (N-terminal Cys attached via a thioether bond to UltraLink-Iodoacetyl gel).
T2 construct: also called Cys-Aβ (1-40); immobilized Cys-Aβ-peptide
The experiment in a line: summary of affinity-MS, epitope excision and ELISA results. A general note: In an ELISA, binding on a coated surface is turned into a signal by an enzyme label.

Assay [2] deals with T2, N-Cysteinyl-Aβ (1-40). The assay can be described thus: affinity-MS, HCC (93-120) on the immobilized Cys-Aβ (1-40) column.
In the assay “human cystatin C (HCC)” the target is B1. The assay can be described thus: ELISA, biotinylated Aβ-peptides on adsorbed HCC.

Take B1: the binding result with β-amyloid (Aβ) Aβ (1-40) is listed as “binds”.
As for B2, the binding result in the assay with N-Cysteinyl-Aβ (1-40) [1] is given as “binds”.
With B3, the binding result with N-Cysteinyl-Aβ (1-40) [2] was “binds”.
Consider B4, for which the binding result with human cystatin C (HCC) is recorded as “no binding”.
